Patent US20110318339A1 (FABRUS, published 2011)
Residue numbers refer to the chain shown, from its start. Numbers in names are those of the source.

B1: Fab VH1-46_IGHD6-6*01_IGHJ1*01 S102A/S103P/S104F/H111F G56A & L6_IGKJ1*01 S28N/S30D/S31H (Fab, V domains shown)
VH: QVQLVQSGAEVKKPGASVKVSCKASGYTFTSYYMHWVRQAPGQGLEWMGIINPSGASTSYAQKFQGRVTMTRDTSTSTVYMELSSLRSEDTAVYYCAREEYAPFSAEYFQFWGQGTLVTVSS
VL: EIVLTQSPATLSLSPGERATLSCRASQNVDHYLAWYQQKPGQAPRLLIYDASNRATGIPARFSGSGSGTDFTLTISSLEPEDFAVYYCQQRSNWPPWTFGQGTKVEIKR
notes: Fab made in E. coli: VH on CH1 with His6 and Flag tags (Plasmid A), VL on kappa CL (Plasmid C); also called H: APFF G56A & L: NDH
B2: Fab VH1-46_IGHD6-6*01_IGHJ1*01 S102A/S103P/S104F/H111F S54A & L6_IGKJ1*01 S28N/S30D/S31H (Fab, V domains shown)
VH: B1 VH with S54A, A56G
VL: B1 VL
notes: Fab made in E. coli: VH on CH1 with His6 and Flag tags (Plasmid A), VL on kappa CL (Plasmid C); also called H: APFF S54A & L: NDH
B3: Fab VH5-51_IGHD5-18*01>3_IGHJ4*01 G100K/G104T G24T/S28R/G35V & V3-4_IGLJ1*01 (Fab, V domains shown)
VH: EVQLVQSGAEVKKPGESLKISCKTSGYRFTSYWIVWVRQMPGKGLEWMGIIYPGDSDTRYSPSFQGQVTISADKSISTAYLQWSSLKASDTAMYYCARRKYSYTYDYFDYWGQGTLVTVSS
VL: QTVVTQEPSFSVSPGGTVTLTCGLSSGSVSTSYYPSWYQQTPGQAPRTLIYSTNTRSSGVPDRFSGSILGNKAALTITGAQADDESDYYCVLYMGSGISYVFGTGTKVTVL
notes: Fab made in E. coli: VH on CH1 with His6 and Flag tags (Plasmid A), VL on lambda CL (Plasmid E); also called H: KT TRV & L: wt
B4: Fab VH5-51_IGHD5-18*01>3_IGHJ4*01 G100K/G104T G24T/S28R/G35V & V3-4_IGLJ1*01 V91L/S96P (Fab, V domains shown)
VH: B3 VH
VL: B3 VL with V91L, S96P
notes: Fab made in E. coli: VH on CH1 with His6 and Flag tags (Plasmid A), VL on lambda CL (Plasmid E); also called H: KT TRV & L: LP
B5: Fab VH5-51_IGHD5-18*01>3_IGHJ4*01 G100K/G104T G24T/S28R/G35V & V3-4_IGLJ1*01 V91L/S96P S52M (Fab, V domains shown)
VH: B3 VH
VL: B3 VL with S52M, V91L, S96P
notes: Fab made in E. coli: VH on CH1 with His6 and Flag tags (Plasmid A), VL on lambda CL (Plasmid E); also called H: KT TRV & L: LP S52M
B6: Fab VH5-51_IGHD5-18*01>3_IGHJ4*01 G100K/G104T G24T/S28R/G35V & V3-4_IGLJ1*01 V91L/S96P S52G (Fab, V domains shown)
VH: B3 VH
VL: B3 VL with S52G, V91L, S96P
notes: Fab made in E. coli: VH on CH1 with His6 and Flag tags (Plasmid A), VL on lambda CL (Plasmid E); also called H: KT TRV & L: LP S52G

Assays:
[1] = target: T1, recombinant human DLL4 (Cat# 1506-D4/CF, R&D Systems) (human, UniProt Q9NR61 27-529); experiment: ELISA, DLL4 coated, Fab 50 nM
T1 construct: Bought protein; also called hDLL4; rHuman DLL4
Method: (§1) The plate was blocked by adding 1% BSA in Tris-buffered Saline Tween (TBST) and incubating for 1 hour at room temperature followed by washing 2 times with 150 μl TBST. A Fab antibody was serially diluted in 1% BSA in PBS. A 50 μl aliquot of each serial dilution was added, in triplicate, to each well and the plate was incubated for 1 hour at room temperature followed by washing 2 times with TBST. 50 μl of either goat anti-human kappa HRP conjugated secondary antibody (Cat # A7164-1 mL, Sigma-Aldrich) or goat anti-human lambda HRP conjugated secondary antibody (Cat # L1645-1 ml, Sigma-Aldrich), diluted 1:1000 in 1% BSA in PBS, was added to each well and the plate was incubated for 30 minutes at room temperature followed by washing 3 times with 200 μl TBST. Finally, 50 μl TMB one-component reagent (Cat # TMBW-1000-01, BioFax) was added and allowed to develop for 2 minutes at room temperature. The reaction was immediately halted by the addition of 50 μl 0.5M H₂SO₄ and the absorbance at 450 nm was measured using an ELISA plate reader.

[2] = target: T1, recombinant human DLL4 (Cat# …); experiment: ELISA, DLL4 coated, Fab 100 nM
[3] = target: T1, recombinant human DLL4 (Cat# …); experiment: ELISA, DLL4 coated, Fab 75 nM
[4] = target: T1, recombinant human DLL4 (Cat# …); experiment: ELISA, DLL4 coated, Fab 0.74 nM
Method: as §1

[5] = target: T1, recombinant human DLL4 (Cat# …); experiment: ELISA, DLL4 coated, Fab 3.70 nM
Method: as §1

[6] = target: T1, recombinant human DLL4 (Cat# …); experiment: ELISA, DLL4 coated, Fab 11.11 nM
[7] = target: T1, recombinant human DLL4 (Cat# …); experiment: ELISA, DLL4 coated, Fab 0.41 nM
Method: as §1

[8] = target: T1, recombinant human DLL4 (Cat# …); experiment: ELISA, DLL4 coated, Fab 25 nM
How it was run: (§2)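 Block 1% BSA/TBST 1 h RT; Fab serial dilutions (1% BSA/PBS, triplicate) 1 h RT; HRP anti-human kappa or lambda 1:1000, 30 min RT; TMB 2 min; 0.5M H₂SO₄ stop; OD450.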

[9] = target: T1, recombinant human DLL4 (Cat# …); experiment: ELISA, DLL4 coated, Fab 100 nM; remark: listed apart in the source
Method: (§3) In this example, an ELISA binding assay was used to assess the dose-dependent binding of Fab antibodies to recombinant human DLL4 and recombinant mouse DLL4.
as §1

[10] = target: T1, recombinant human DLL4 (Cat# …); experiment: SPR (ProteOn), hDLL4 amine-coupled on chip
Method: In this example, the binding affinities of selected anti-DLL4 Fabs to recombinant human DLL4 (hDLL4, Cat# 1506-D4/CF, R&D Systems) were analyzed using Surface Plasmon Resonance (SPR) (Biosensor Tools, Salt Lake City, Utah). The Fabs analyzed include germline-derived antibodies and germline-modified DLL4 antibodies. Recombinant hDLL4 was immobilized on a SPR chip using amine coupling at three different surface densities. The Fabs were serially diluted 3-fold, with an initial concentration of 1 μM. Binding studies were run on a ProteOn system using a GLM sensor chip in 10 mM HEPES, pH 7.4, 150 mM NaCl, 0.01% Tween-20, and 0.1 mg/ml BSA at 25° C. The response data from each surface was globally fit to determine the binding constants.

[11] = target: T1, recombinant human DLL4 (Cat# …); experiment: ELISA, DLL4 coated, Fab 12.5 nM
Method: as §3, §1

[12] = target: T1, recombinant human DLL4 (Cat# …); experiment: ELISA, DLL4 coated, Fab 33.33 nM
Method: as §1

[13] = target: T1, recombinant human DLL4 (Cat# …); experiment: ELISA, DLL4 coated, Fab 1.23 nM
Method: as §1

[14] = target: T1, recombinant human DLL4 (Cat# …); experiment: ELISA, DLL4 coated, Fab 0.14 nM
Method: as §1

[15] = target: T1, recombinant human DLL4 (Cat# …); experiment: ELISA, DLL4 coated, Fab 20 nM
How it was run: as §2

[16] = target: T1, recombinant human DLL4 (Cat# …); experiment: ELISA, DLL4 coated, Fab 2.22 nM
Method: as §1

[17] = target: T1, recombinant human DLL4 (Cat# …); experiment: ELISA, DLL4 coated, Fab 50 nM; remark: listed apart in the source
Method: as §3, §1

[18] = target: T1, recombinant human DLL4 (Cat# …); experiment: ELISA, DLL4 coated, Fab 6.67 nM
Method: as §1

[19] = target: T1, recombinant human DLL4 (Cat# …); experiment: ELISA, DLL4 coated, Fab 100 nM; remark: listed apart in the source
Method: as §1

ELISA absorbance at 450 nm [1] [A450] | ELISA absorbance at 450 nm [2] [A450] | ELISA absorbance at 450 nm [3] [A450] | ELISA absorbance at 450 nm [5] [A450] | ELISA absorbance at 450 nm [6] [A450] | ELISA absorbance at 450 nm [7] [A450] | ELISA absorbance at 450 nm [8] [A450] | ELISA absorbance at 450 nm [9] [A450] | Kd [10] [nM] | koff [10] [s⁻¹] | kon [10] [M⁻¹ s⁻¹] | ELISA absorbance at 450 nm [11] [A450] | ELISA absorbance at 450 nm [12] [A450] | ELISA absorbance at 450 nm [13] [A450] | ELISA absorbance at 450 nm [14] [A450] | ELISA absorbance at 450 nm [17] [A450] | ELISA absorbance at 450 nm [19] [A450] | also measured | Binder
0.366 | 0.453 | 0.543 | – | – | – | – | – | – | – | – | – | – | – | – | – | – | – | B1
0.154 | 0.213 | 0.212 | – | – | – | – | – | – | – | – | – | – | – | – | – | – | – | B2
– | – | – | 0.03 | 0.04 | 0.01 | 0.26 | 0.45 | 36.2 | 0.0717 | 2.09e+06 | 0.23 | 0.08 | 0.01 | 0 | 0.32 | 0.16 | ELISA absorbance at 450 nm [4]: 0.002 A450; ELISA absorbance at 450 nm [15]: 0.054 A450; ELISA absorbance at 450 nm [16]: 0 A450; ELISA absorbance at 450 nm [18]: 0.023 A450 | B3
– | – | – | 0.03 | 0.07 | 0.02 | 0.58 | 1 | 3.3 | 0.036 | 1.1e+07 | 0.45 | 0.19 | 0.03 | 0.03 | 0.81 | 0.34 | – | B4
– | – | – | 0.03 | 0.06 | 0.03 | 0.59 | 1.01 | – | – | – | 0.41 | 0.12 | 0.03 | 0.02 | 0.8 | 0.24 | – | B5
– | – | – | 0.06 | 0.17 | 0.01 | 0.9 | 1.14 | 5 | 0.0147 | 2.96e+06 | 0.63 | 0.35 | 0.03 | 0.02 | 1.02 | 0.69 | – | B6
